{
  "source": "patent US20200207858A1",
  "about": "(ADICET BIO, published 2020)",
  "binders": {"B1": {"name": "hD11-5 TCRL antibody (humanized D11) (antibody, human IgG1, kappa, V domains shown)", "VH": "QITLKESGPTLVKPTQTLTLTCTFSGFSLSTSGMGVSWIRQPPGKALEWLAHIYWDDDKRYNPSLKSRLTITKDTSKNQVVLTMTNMDPVDTATYYCARKDYGSSFYAMHYWGQGTLVTVSS", "VL": "DIQMTQSPSSLSASVGDRVTITCKASQDIHNYIAWYQQKPGKAPKLLIHYTSTLQPGVPSRFSGSGSGTDFTFTISSLQPEDIATYYCLQYDNLWTFGQGTKVEIKR", "notes": "The antibody was biotinylated for flow cytometry; also called dH11-5"}, "B2": {"name": "D11 TCRL antibody (murine parental monoclonal antibody) (antibody, mouse IgG1, kappa, V domains shown)", "VH": "not shown", "VL": "DIQMTQSPSSLSASLGGKVTITCKASQDIHNYIAWYQHKPVKGPRLLIHYTSTLQPGTPSRFSGSGSGRDYSFSISNLEPEDIATYYCLQYDNLWTFGGGTKLEIKR", "notes": "Mouse IgG1 isotype, recombinant from Expi293 cells; The antibody was biotinylated for flow cytometry; also called mouse parental D11"}},
  "key": {"[1]": {"molecular_target": "T1, Single-chain HLA-A2 (scHLA-A2)/TyrD 369-377 peptide complex", "T1 construct": "Used as the soluble analyte in SPR; not shown: flexible linker", "experiment": "SPR (ProteOn), IgG captured by immobilized anti-human antibody, scHLA-A2/TyrD 369-377 as analyte (250-16 nM), Langmuir kinetic fit, column KD"}, "[2]": {"molecular_target": "T1, Single-chain HLA-A2 (scHLA-A2)/TyrD …", "experiment": "SPR (ProteOn), IgG captured by immobilized anti-human antibody, scHLA-A2/TyrD complex as analyte at 16-250 nM, apparent affinity", "method": "(§1) Briefly, six channels of ProteOn GLM sensor chip (BioRad laboratories) were activated with 50 μl of a mixture of 0.04 M N-ethyl-N′-(3-dimethylaminopropyl) carbodiimide (EDC) and 0.01 M sulfo-N-hydroxysuccinimide (Sulfo-NHS) at a flow rate of 30 μl/min. The anti-mouse or anti-human polyclonal antibodies (Jackson ImmunoResearch) were diluted in 10 mM sodium acetate buffer pH 4.5 to a final concentration of 25 μg/ml and 150 μl were injected followed by an injection of 150 μl of 1 M ethanolamine-HCl pH 8.5. The IgG TCRL antibodies were injected in the vertical orientation with a flow rate of 30 μl/min. […] Running buffer (PBST) was injected simultaneously in the sixth channel for double referencing to correct for loss of the captured antibodies from the chip sensor surface during the experiment. All binding sensorgrams were collected, processed and analyzed using the integrated ProteOn Manager (Bio-Rad Laboratories, Hercules, USA) software. Binding curves were fitted using the Langmuir model describing 1:1 binding stoichiometry, or with the Langmuir and mass transfer limitation model."}, "[3]": {"molecular_target": "T1, Single-chain HLA-A2 (scHLA-A2)/TyrD …", "experiment": "SPR (ProteOn), IgG captured by immobilized anti-mouse antibody, scHLA-A2/TyrD complex as analyte at 16-250 nM, apparent affinity", "method": "as §1"}, "[4]": {"molecular_target": "T1, Single-chain HLA-A2 (scHLA-A2)/TyrD …", "experiment": "SPR (ProteOn), IgG captured by immobilized anti-mouse antibody, scHLA-A2/TyrD 369-377 as analyte (250-16 nM), Langmuir kinetic fit, column KD", "method": "as §1"}},
  "data": [
    {"binder": "B1", "values": [
      {"measurement": "Kd", "setting": "[1]", "result": 4.61, "unit": "nM"},
      {"measurement": "Kd", "setting": "[2]", "result": 3.9, "unit": "nM"}
    ]},
    {"binder": "B2", "values": [
      {"measurement": "Kd", "setting": "[3]", "result": 4.6, "unit": "nM"},
      {"measurement": "Kd", "setting": "[4]", "result": 3.98, "unit": "nM"}
    ]}
  ]
}
